Target: T1, FLAG-tagged full-length PU.1, purified (human, UniProt P17947 1-270)
T1 construct: PU.1 transcription factor, full length; also called FLAG-PU.1; purified PU.1; source: 293-ExpiF (Expi293TF) cells, transfected with pCAG, purified (FLAG M2 beads, anion exchange, size exclusion)
Experiment: MST; SMARCD2 SWIFT domain and PU.1; Kd model fit
Settings: both partners purified

Kd: 3.6 µM
B1: SMARCD2 SWIFT domain, purified from E. coli (domain or fragment, human)
chain: LTQKRKLRIYISNTFSPSKAEGDSAGTAGTPGGTPAGDKVASWELRVEGKLLDDPSKQKRKFSSFFKSLVIELDKELYGPDNHLVEWHRMPTTQETDGFQVKRPGDLNVKCTLLLMLDHQPPQYQHPDPIVINHVISVDPNDQKKTACYDIDVEVD
notes: SMARCD2, human, stretch of the SWIFT domain before the SWIB domain; the text gives aa185–312; also called SMARCD2 YEATS-like SWIFT domain; source: E. coli (pGOOD), purified
